From the nanobody polyreactivity screen of Harvey et al. (2022) come the findings set out here.

This data set in a line: yeast display, Sf9 membrane polyspecificity reagent, FACS + sequencing; frameworks hold sequencing errors. In a few lines: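 Genes from sorted yeast were amplified by colony PCR, read by MiSeq 2 × 250 sequencing and filtered on CDR length. These cells carried a synthetic nanobody library in Saccharomyces cerevisiae BJ5465 and were sorted by FACS into low and high (top ~1%) gates on anti-HA and streptavidin fluorescence. Polyreactivity is labelled according to the gate of origin.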
Consider “QVQLVESRRGLVQAGGSIRLSCAASGSTFPYNAMGWYRQAPGKDRELVAAITSAGGTNYADSVKGRFTISRDNAKNSVYLQMNSLKPEDSAVYSCAAVGSGYYDGYFYWGQGTQVTVSS”, for which the “polyreactivity (PSR sort gate)” value was “low polyreactivity”.

Take “QVQLVESGGGLVQAGGSLRLSCAASGSTFYPYAMGWYRQAPGKERELVAAISSGGSTSYADSVKGRFTISRDNAKNTVYLQMNSLKPEDTAVYYCNASSPGAVPVYDYDYWGQGTQVTVSS”: the “polyreactivity (PSR sort gate)” value is “low polyreactivity”.

In the case of “QVQLVESGGGLVQAGGSLRLICAASGTFDHYAMGWDRQAPGKERELVAAISWSGGSTYYADSVKGRFTISRDNAKNTVYLQMNSLKPEDTAVYYCNAETDGYFESNDFDYWGQGTQVTVSS”, the “polyreactivity (PSR sort gate)” value was “high polyreactivity”.

Turning to “QVQLVESGGGLVQAGGSLRLSCAASGFTFQAYAMGWYRQAPGKERELVAAISKSGGSTYYADSVKGRFTISRDNAKNTVYLQMNSLKPEDTAVYYCAARSWERYRAFIYWGQGTQVTVSS”, the “polyreactivity (PSR sort gate)” value was “high polyreactivity”.

With “QVQLVESGGGLVQAGGSLRLSCADSGITFDWNTMGWYRQAPGKERELVAAITFRSGSTYYADSVKGRFTISRDNAKNTVYLQMNSLKPEDTAVYYCNKDTAYTSPRFDYWGQGTQVTVSS”, the “polyreactivity (PSR sort gate)” value is recorded as “high polyreactivity”.

In the case of “QVHLVESWGGLVQAGGSLRLICAASGSTFYANAMGWYRQAPGKERQLVAAITRSRRSTYYADSVKGRFTISRDNAKNTVYLQMNSLKRVDTAVYYFSARRVRDRVRYDYCGQGTQVTVSS”, the “polyreactivity (PSR sort gate)” value is “high polyreactivity”.

With “QVQLVESGGGLVHAGGSLRLSCAASGFTFTFYAMGWYRQAPGKERELVATISSNGGSTYYADSVKGRFTISRDNAKNTVYLQMNSLKPEDTAVYYCAAITSYYGYYYWGQGTQVTVSS”, the “polyreactivity (PSR sort gate)” value was “high polyreactivity”.

Turning to “QVQLVESGGGLVQAGGSLRLSCAASGIIFSTYAMGWYRQAPGKERELVAAISDGGASTYYADSVKGRFTISRDNAKNTVYLQMNSLKPEDTAVYFCAAVQTAGQFRYGYWGQGTQVTVSS”, the “polyreactivity (PSR sort gate)” value was “high polyreactivity”.

For the sequence “QVQLVESRGGLVQAGGSLRLSCAASGYTFDWYTMGWYRQAPGKERELVAAISASGVRTYYADSVKGRFTISRDNAKNTVYLQMNSLKPEDTAVYYCYRVYSTSRITQYEFDYWGLGTQVTVSS”, the “polyreactivity (PSR sort gate)” value is “low polyreactivity”.

“QVQLVESGGGLVQAGGSLRLSCAASGSNYYVYPMGWYRQAPGKERELVATISTGGSTYYADSVKGRFTISRDNAKNTVYLQMNSLKPEDTAVYYCNAQITPRYWGGYDSWGQGTQVTVSS”: the “polyreactivity (PSR sort gate)” value was “low polyreactivity”.

On to “QVQLVESGGGLVQAGGSLRLSCAPSGFIFYANDMGWYRQAPGKERELVARITNSGGSTYYADSVKGRFTISRDNAKNTVYLQMNSLKPEDTAVYYCAAWRRFNYSRRYYYWGQGTQVTLSS”, for which the “polyreactivity (PSR sort gate)” value is “high polyreactivity”.

Turning to “QGQLVESGGGLVQAGGSLRLSCAASGSIFDLNAMGWYRQAPGKERELVAAISTGGGTYYADSVKGRFTISRDTAKNTVYLQMNRLKPEDTAVYYCNRVTRWTYNYWGQGTQVTVSS”, the “polyreactivity (PSR sort gate)” value is “high polyreactivity”.

In the case of “QVQLVESGGGLVQAGGSLRLTCAASGSIFWYNAMGWYRQAPGKERELVAAIKWSGGSTFYADSVKGGFTISRDTAKNNVYLQMNSLKPEDTAVYYCNAPPLYRDEFWGQGTQVTVSS”, the “polyreactivity (PSR sort gate)” value was “high polyreactivity”.

In the case of “QVQLVESGGGLVQAGGSLRLSCAASGGTFLVNAMGWYRQSPGKEREWVATITARVASTYYADSVTGRFTISRDNAKNTVYLQMNTLKPEDTAVYYCAARKVWGYTYGYPYYYWGQATQVTVSS”, the “polyreactivity (PSR sort gate)” value is reported as “high polyreactivity”.

Regarding “QVQLVDSGGGLVQAGGSLRLSCAASGLIFSYNAMGWYRQAPGKERELVATIRRVGSTNYADSVKGRFTISRDNEKNTVYLQMNSLKPEDTAVYYCAARSLRYGRGMYYWGQGTQVTVSS”, the “polyreactivity (PSR sort gate)” value was “high polyreactivity”.

As for “QVQLVESRGGLVQAGGSLRLSCAASGFTFERYTMGWYRQAPGKERELVAGINYSGGSTYYADSVKGRFTISRDNAKNTVYLQMNSLKPEDTAVYYCAKDFPYSRYRRRYYYWGQGTQVTVSS”, the “polyreactivity (PSR sort gate)” value was “high polyreactivity”.

With “QVQLVESGGGLVQAGGSLRLSCAASGFIFEHYAMGWYRQAPGKERELVAAISRTGGRTYYADSVKGRFTISRDNAKNTVYLQMNSLKPEDTAVYYCAATAYSRLGVSSDYWGQGTQVTVSS”, the “polyreactivity (PSR sort gate)” value is on record as “high polyreactivity”.

Consider “QVQLVESGGGLVQAGGSLRLSCAASGSIFTINTMGWYRPAPGKERELVAAITGSGGITYYADSVKGRFTISRDYAKNTVYLQLNTLKPEDTAVYYCAADYWWTIPEEPQGLGAVDYWGLGTQVTVSS”, for which the “polyreactivity (PSR sort gate)” value is listed as “low polyreactivity”.

As to “QVQLVESGGGLVQAGGSLRLSCAASGFTLGSNAMGWYRQAPGKERELVAAISWDGGRTYYADSVKGRFTISRDNAKNTVYLQMNSLKPEDTAVYYCNRASYLRGTAGGDYWGQGTQVTVSS”, the “polyreactivity (PSR sort gate)” value is “high polyreactivity”.

In the case of “QVQLVESGGGLVQAGGSLRLSCAASGRILDYNAMGWYRQAPGKERELVADISGSGDSTYYADSVKGRFTISRDNAKNTVYLQMNSLKPEDTAVYYCAASGAWDWWLGPYDDYYWGQGTQVTVSS”, the “polyreactivity (PSR sort gate)” value is “low polyreactivity”.

In the case of “QVQLVESGGGLVQAGGSLRLSCAASGSTLYGYAMGWSRQAPGKERELVAAISDSGGNTYYADSVKGRFTISRDNAKNTGYLQMNSLKPEDTAVYYCAAEDIVFPYDYWGQGTQVTVSS”, the “polyreactivity (PSR sort gate)” value is “low polyreactivity”.

In the case of “QVQLVESGGGLVQAGGSLRLSCAASVYTFYWNAMGWYRQAPGKEREFVASFSGTSTYYADSVKGRFTISRDNAKNTVYLQMNSLKPEDTAVYYCNARLTLGPRKYEYWGQGTQVTVSS”, the “polyreactivity (PSR sort gate)” value is given as “low polyreactivity”.

As for “QVQLVESGGGLVQAGGSLRLICAASGIIFNYNAMGWYRQAPGNERELVATISSGDSTNYADSVKGRFTISRDNAKNTVYLQMNSLKPEDTAVYYCAAESPSVFEGYAQLYIILEDYWGQGTQVTVSS”, the “polyreactivity (PSR sort gate)” value is given as “low polyreactivity”.

Turning to “QVQLVESGGGLVQAGGSLRLSCAASGRTFSSNTMGWYRQAPGKERELVAAIDWSGGRTYYADSVKGRFTISRDNAKNTVYLQLNSLKPEDTEVYYCARSRSYWGIVYGRYDYWGQGTQVTVSS”, the “polyreactivity (PSR sort gate)” value was “high polyreactivity”.

In the case of “QVQLVESGGGLVQAGGSLRLSCAASGSIFPYYAMGWYRPAPGKERELVAAISSGGSTNYADSVKGRFTISRDNAKNTVYLEMNSLKPEDTAVYYCAARWSRLFRHRVNYWYDYWGQGTQVTVSS”, the “polyreactivity (PSR sort gate)” value is listed as “high polyreactivity”.

As for “QVQLVESGGGLVQAGGSLRLSCAASGRIFRIYAMGWYRQAPGKERELVAAISWSGGRTYYADSVKGRFTISRDNAKNTVYLQMNSLIREDTAVYYCNADSYSRRGFEYDYWGQGTQVTVSS”, the “polyreactivity (PSR sort gate)” value was “high polyreactivity”.

“QVQHVESGGGLVQAGGSLRLSCAASGIFVDNAMGWYRQARGKERELVAAITSSTDSTYYADSVKGRFPISRDNAKNTVYLQINSLNPEDSAVYYCAVARPGGFYFLVHYGYGYWGQGTQVTVSS”: the “polyreactivity (PSR sort gate)” value is listed as “low polyreactivity”.

Turning to “QVQIVESGGALVQAGGSLRLSCAASGITLRPYAMGWYRQAPGKERELVAAITSSGGSTYYADSVKGRFTISRDIAKNTVYLLMNSLIPEDTAVYYCAALRVYAGDYWGQGTQVTVSS”, the “polyreactivity (PSR sort gate)” value is “low polyreactivity”.

Take “QVQLVESGGGLVQAGGSLRLSCAASGSTLVYYDMGWYRQAPGKEREFVAAITISGGRTYYADSVKGRFTISRDNAKNTVYLQMNSLKPEDTAVYYCAADTDRRSPFDYWGQGTQVTVSS”: the “polyreactivity (PSR sort gate)” value is recorded as “high polyreactivity”.

“QVQLVESGGGIVQAGGSLRLSCAASGSTFGAYPMAWYRQAPGTERELVAVITRTGSTYADSVKGRFTISRDNAKNTVYLQMNSLKPVDTAVYYCNADYYVSRLYDYQVYSYRYDYWGQGTKVTVSS”: the “polyreactivity (PSR sort gate)” value was “high polyreactivity”.

With “QVQLVESGGGIVQAGGSLRLSCAASGSIFWVNVMGWYRQAPGKEREFVAAITRSGGSTYYADSVKGRFTISRDNAKNTVYLQMKSLKPEDTAVYYCNRRGRRGYDYWGQGTQVTVSS”, the “polyreactivity (PSR sort gate)” value is listed as “high polyreactivity”.

As for “QVQLVESWAGVVQAGGSLRLSCAASGSIFRNAMGWYRQAPGKERELVAGIRWSYGSTNYADSVKGRFTISRDNAKNSVYLQMNSLKPEDTAVYYCAKGAYYARRMYFWGQGTQVTVSS”, the “polyreactivity (PSR sort gate)” value is listed as “low polyreactivity”.

As for “QVQLVESGGGLVQAGGSLRLSCAASGRIFGRYVMGWYRQAPGKERELVAAITSRDDSTYYADSVKGRFTISRDNAKNTVYLQMNSLKPEDTAVYYCAATWGRGYDYWGQGTQVTVSS”, the “polyreactivity (PSR sort gate)” value is recorded as “high polyreactivity”.

Regarding “QVQLVESGGGLVQAGGSLRLSCAASGRIIGRYAMGWYRQAPGKEREFVAAISGSGGSTYYADSVKGRFTISRDNAKNTVYLQMNSLKPEDTAVYYCNALSVPDYDYWGQGTQVTVSS”, the “polyreactivity (PSR sort gate)” value is “high polyreactivity”.

For the sequence “QGKRVESGRGLVQAGGILRLSCAASGRTFYYYAMGWYRQSPGKERELVASITWSGGSTYYADSVKGRFTISRDNAKNTVYLQMNSLKPEDTAVYYCAARFVYYGVDYWGQGTQVTGSS”, the “polyreactivity (PSR sort gate)” value is reported as “high polyreactivity”.

Consider “QVQLVESGGGLVQAGGSLRLSCAASGRTFVYNGMGSYRQAPGKERELVAAISGSGGSTYYADSVKGRFTISRDNAKNTVYLQMNSLKPEDTAVYYCATRQGYRLYYWGQGTQVTVSS”, for which the “polyreactivity (PSR sort gate)” value is given as “high polyreactivity”.

With “QVQLVESGGGLVQAGGSLRLSCAASGRTFGYYAMGWYRPAPGKERELVAAITRTGGSTHYADSVKGRFTISRDNAKNTVYLQMNSLKPEDTAVYYCAVDYHQAWPSADYWFEYDYWGQGTQVTVSS”, the “polyreactivity (PSR sort gate)” value was “low polyreactivity”.

On to “QVQLVESGGGLVQAGGSLRLSCAASGSIFYPYAMGWYRQAPGKERELVAAIDYSDGSTYYADSVKGRFTISRDNAKNTVYLQMNSLKPEDTAVYYCAADGTYVWGSEEGNYWGQGTQVTVSS”, for which the “polyreactivity (PSR sort gate)” value is “low polyreactivity”.

Regarding “QVQLVESGGGLVQAGGSLRLSCAASGSIFTVYAMGWYRPAPGKEREFVAAITGSGGRTYYADSVKGRFTISRDNAKNTVYLQMNSLKPEDTAVYYCAATTRPGYRYEGDYWGQGTQVTVSS”, the “polyreactivity (PSR sort gate)” value is reported as “low polyreactivity”.

Regarding “QVQLVESGGGLVQAGGSLRLSCAASGSTILQNAMGWYRQAPGKERELVAAISRSGGSTYYADSVKGRFTISRDNAKNTVYLQMNSLKPEDTAVYYCARRYWPGSAYWIYDYWGQGTQVTVSS”, the “polyreactivity (PSR sort gate)” value is given as “high polyreactivity”.

On to “QVQLVESGGGLVQAGGSLRLSCAASGITSRQYAMGWYRQAPGKERELVAAISFSGGRTYYADSVKGRFTISRDNAKNTVYLQMNSLKPEDTAVYYCATRNRYSPRDYWGQGTQVTVSS”, for which the “polyreactivity (PSR sort gate)” value is “high polyreactivity”.
